Experimental data reported in IntAct's records for PubMed 22587461.

B1: Translocated intimin receptor Tir (Escherichia coli O127:H6 (strain E2348/69 / EPEC)), B7UM99 (parent)
chain: MPIGNLGNNVNGNHLIPPAPPLPSQTDGAARGGTGHLISSTGALGSRSLFSPLRNSMADSVDSRDIPGLPTNPSRLAAATSETCLLGGFEVLHDKGPLDILNTQIGPSAFRVEVQADGTHAAIGEKNGLEVSVTLSPQEWSSLQSIDTEGKNRFVFTGGRGGSGHPMVTVASDIAEARTKILAKLDPDNHGGRQPKDVDTRSVGVGSASGIDDGVVSETHTSTTNSSVRSDPKFWVSVGAIAAGLAGLAATGIAQALALTPEPDDPTTTDPDQAANAAESATKDQLTQEAFKNPENQKVNIDANGNAIPSGELKDDIVEQIAQQAKEAGEVARQQAVESNAQAQQRYEDQHARRQEELQLSSGIGYGLSSALIVAGGIGAGVTTALHRRNQPAEQTTTTTTHTVVQQQTGGNTPAQGGTDATRAEDASLNRRDSQGSVASTHWSDSSSEVVNPYAEVGGARNSLSAHQPEEHIYDEVAADPGYSVIQNFSGSGPVTGRLIGTPGQGIQSTYALLANSGGLRLGMGGLTSGGESAVSSVNAAPTPGPVRFV

Variants of: B1
Details: with anxa2_human ANXA2, P07355
anxa2_human ANXA2, P07355, sequence (P07355 whole entry): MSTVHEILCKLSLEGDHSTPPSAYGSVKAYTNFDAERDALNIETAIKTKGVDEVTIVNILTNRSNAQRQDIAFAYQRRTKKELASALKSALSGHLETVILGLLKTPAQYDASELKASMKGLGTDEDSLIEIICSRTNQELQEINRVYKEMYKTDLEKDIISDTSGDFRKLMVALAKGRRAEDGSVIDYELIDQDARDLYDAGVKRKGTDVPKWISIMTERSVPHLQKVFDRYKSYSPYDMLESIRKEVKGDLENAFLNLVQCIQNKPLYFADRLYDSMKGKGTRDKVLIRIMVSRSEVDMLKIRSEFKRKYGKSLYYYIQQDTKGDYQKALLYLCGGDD

Variant | effect of a mutation on the interaction
Y474S | with no effect
